Assay results published in patent US20210403542A1 (BIOARCTIC, published 2021).

How the values were obtained:
[1] = molecular target: T1, human α-synuclein protofibril (human, UniProt P37840 1-140); assay: inhibition ELISA
[2] = molecular target: T1, human α-synuclein protofibril; assay: SPR, Biacore 8K; ratio of KD values
Excerpt: (§1) Due to feasibility issues caused by the complexity of the target antigen in combination with pronounced avidity dependence of the antibodies, different assay set-ups were used to assess α-synuclein protofibril and monomer binding, respectively.

[3] = molecular target: T1, human α-synuclein protofibril; assay: inhibition ELISA; protofibril concentration as monomer equivalents
[4] = molecular target: T1, human α-synuclein protofibril; assay: SPR, Biacore 8K; PF coated on chip, antibody injected, single cycle kinetics
Excerpt: as §1

Aβ-protofibril = molecular target: T2, Aβ-protofibril (UniProt P05067 672-713); assay: inhibition ELISA; concentration of Aβ-protofibril varied against BAN0805 (hu47-IgG4)
T2 construct: also called Aβ-protofibrils

β-synuclein monomer = β-synuclein monomer (UniProt Q16143 1-134); assay: inhibition ELISA; concentration of β-synuclein monomer varied against BAN0805 (hu47-IgG4)
γ-synuclein monomer = γ-synuclein monomer (UniProt O76070 1-127); assay: inhibition ELISA; concentration of γ-synuclein monomer varied against BAN0805 (hu47-IgG4)
α-synuclein monomer = α-synuclein monomer (human, UniProt P37840 1-140); assay: SPR, Biacore 8K; antibody captured by anti-human antibody, monomer injected, single cycle kinetics
Excerpt: as §1

β-synuclein monomer, sequence (Q16143 whole entry): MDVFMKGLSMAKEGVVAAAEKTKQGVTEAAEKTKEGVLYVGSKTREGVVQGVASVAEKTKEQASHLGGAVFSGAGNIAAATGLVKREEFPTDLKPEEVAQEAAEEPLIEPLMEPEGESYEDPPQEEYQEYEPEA
γ-synuclein monomer, sequence (O76070 whole entry): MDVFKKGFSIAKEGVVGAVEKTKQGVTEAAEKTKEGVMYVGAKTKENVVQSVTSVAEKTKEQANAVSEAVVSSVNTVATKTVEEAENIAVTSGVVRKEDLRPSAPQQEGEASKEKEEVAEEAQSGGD

B1: BAN0805 (antibody, human IgG4 S228P, kappa, V domains shown)
VH: QVQLQESGPGLVKPSETLSLTCTVSGFSLTSYGVHWIRQPPGKGLEWIGVIWRGGSTDYSAAFMSRLTISKDTSKNQVSLKLSSVTAADTAVYYCAKLLRSVGGFADWGQGTMVTVSS
VL: DIVMTQSPLSLPVTPGEPASISCRSSQTIVHNNGNTYLEWYLQKPGQSPQLLIYKVSNRFSGVPDRFSGSGSGTDFTLKISRVEAEDVGVYYCFQGSHVPFTFGQGTKLEIKR
notes: Humanized variant of mAb47, human IgG4 (pXC-IgG4Pro(deltaK)) / kappa; also called hu47-IgG4
- selectivity for α-synuclein protofibril versus monomer (IC50 monomer / IC50 PF) [1]: 910 fold
- selectivity PF vs. monomeric α-synuclein (fold) [2]: 110000 fold
- IC50 [3]: 2.2 nM
- Kd [4]: 0.0185 nM
- binding result (Aβ-protofibril): no binding
- binding result (β-synuclein monomer): no binding (tested: last point just above the 10000 nM tick)
- binding result (γ-synuclein monomer): no binding (tested: last point just above the 10000 nM tick)
- Kd (α-synuclein monomer): 2190 nM
